Assay results reported in patent publication US20260125472A1 (HEFEI TG IMMUNOPHARMA, published 2026).

Key:
[1] = target: T1, Trop2 protein (UniProt P09758 27-274); experiment: ELISA, coated Trop2 protein, OD450
T1 construct: Bought recombinant protein; also called Trop2-Biotin protein (biotin-labelled, bridging ELISA)
T1 sequence (looked up): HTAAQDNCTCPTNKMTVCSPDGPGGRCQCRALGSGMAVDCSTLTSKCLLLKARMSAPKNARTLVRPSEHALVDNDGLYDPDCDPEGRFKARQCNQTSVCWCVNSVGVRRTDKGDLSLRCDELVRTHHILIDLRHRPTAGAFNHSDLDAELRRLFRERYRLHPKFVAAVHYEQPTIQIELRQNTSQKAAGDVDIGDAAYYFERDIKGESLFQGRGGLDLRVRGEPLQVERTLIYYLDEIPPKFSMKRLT
Outline: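 Plates coated overnight at 4° C with Trop2 at 2 μg/ml, blocked with PBS/10% BSA; serially diluted bispecifics bound 1 h at 37° C. Detection by HRP anti-human Fab secondary, TMB 3 min, acid stop, OD450.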

[2] = target: T2, Trop2 on A-375-Trop2 melanoma cells (UniProt P09758 27-323, limits assumed); experiment: flow cytometry, A-375-Trop2 cells, MFI [panel B]
T2 construct: whole, on cells
T2 sequence (looked up): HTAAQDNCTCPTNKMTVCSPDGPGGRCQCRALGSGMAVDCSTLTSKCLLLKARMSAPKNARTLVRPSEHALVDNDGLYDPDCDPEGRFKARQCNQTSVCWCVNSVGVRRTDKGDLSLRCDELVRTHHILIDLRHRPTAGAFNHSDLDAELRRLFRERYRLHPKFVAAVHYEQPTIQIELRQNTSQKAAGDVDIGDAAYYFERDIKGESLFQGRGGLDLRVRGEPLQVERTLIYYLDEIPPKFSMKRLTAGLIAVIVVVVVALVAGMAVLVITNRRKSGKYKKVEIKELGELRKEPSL
Outline: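 Cells were blocked with goat serum at 4° C for 30 min, then incubated with serially diluted bispecific antibodies or hIgG1LALA control at 4° C for 30 min. Bound antibody was detected with Alexa-647 anti-human IgG (4° C, 30 min, dark) and read by flow cytometry.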

[3] = target: T3, CD3 on CD8 T cells (Homo sapiens (Human), UniProt P07766 23-207); experiment: flow cytometry, CD8 T cells in PBMCs, MFI [panel B]
T3 construct: Native CD3 complex on CD8 T cells among PBMCs; also called T cells (PBMCs gated with anti-human CD8 antibody)
T3 sequence (P07766 23-207 limits assumed): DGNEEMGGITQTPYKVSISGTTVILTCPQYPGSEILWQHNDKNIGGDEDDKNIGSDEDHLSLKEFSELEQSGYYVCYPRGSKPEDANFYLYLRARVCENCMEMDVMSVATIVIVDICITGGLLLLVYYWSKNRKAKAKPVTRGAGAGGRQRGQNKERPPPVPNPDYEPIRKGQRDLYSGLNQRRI
Experimental: (1) PBMCs were diluted to 2×10⁶/ml with PBS and added to a 1.5 ml EP tube at 100 μl/tube, goat serum was added thereto at 10 μl/tube. The cells were blocked at 4° C. for 30 min. The serially diluted bispecific antibodies, Cross3×Trop2, Cross303×Trop2, Cross307×Trop2, Cross308×Trop2, Cross309×Trop2, Cross310×Trop2, Cross311×Trop2, Cross312×Trop2, Cross313×Trop2, Cross314×Trop2, Cross316×Trop2, Cross317×Trop2, Cross318×Trop2, Cross323×Trop2, Cross325×Trop2, Cross326×Trop2, Cross3×PDL1, Cross313×PDL1, Cross316×PDL1, Cross325×PDL1, and control hIgG1LALA (purchased from Bio-Tech) were added and incubated at 4° C. for 30 min. 1 ml of PBS was added to the EP tube, followed by centrifugation at 3500 rpm for 5 min at 4° C. The supernatant was discarded, and the system was washed again with PBS. After centrifugation, the supernatant was discarded, and the cells were resuspended with PBS at 100 μl/tube. 1 μl/tube Alexa-647-labeled goat anti-human IgG secondary antibody (purchased from Jackson lab) and 0.5 μl/tube PerCP-Cy5.5-labeled anti-human CD8 antibody were added and incubated at 4° C. in the dark for 30 min. The cells were washed twice with PBS. After centrifugation, the supernatant was discarded. The cells were resuspended with 200 μl/tube of PBS and assay is performed by flow cytometry.

B1: Cross311×Trop2 (bispecific antibody)
scFv: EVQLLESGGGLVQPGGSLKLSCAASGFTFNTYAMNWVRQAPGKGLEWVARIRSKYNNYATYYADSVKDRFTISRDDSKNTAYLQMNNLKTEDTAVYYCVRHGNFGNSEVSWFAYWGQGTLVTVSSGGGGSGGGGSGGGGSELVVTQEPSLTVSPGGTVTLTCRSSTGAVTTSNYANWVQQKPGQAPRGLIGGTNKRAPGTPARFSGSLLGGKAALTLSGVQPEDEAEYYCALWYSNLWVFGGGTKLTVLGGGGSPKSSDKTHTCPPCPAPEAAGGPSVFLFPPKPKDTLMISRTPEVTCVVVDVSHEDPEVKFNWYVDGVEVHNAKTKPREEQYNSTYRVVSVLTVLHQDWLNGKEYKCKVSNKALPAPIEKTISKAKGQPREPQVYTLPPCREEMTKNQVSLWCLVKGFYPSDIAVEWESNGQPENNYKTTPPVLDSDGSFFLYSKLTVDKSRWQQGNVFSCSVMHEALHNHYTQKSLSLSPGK
heavy: QVQLQQSGSELKKPGASVKVSCKASGYTFTNYGMNWVKQAPGQGLKWMGWINTYTGEPTYTDDFKGRFAFSLDTSVSTAYLQISSLKADDTAVYFCARGGFGSSYWYFDVWGQGSLVTVSSASTKGPSVFPLAPSSKSTSGGTAALGCLVKDYFPEPVTVSWNSGALTSGVHTFPAVLQSSGLYSLSSVVTVPSSSLGTQTYICNVNHKPSNTKVDKKVEPKSSDKTHTCPPCPAPEAAGGPSVFLFPPKPKDTLMISRTPEVTCVVVDVSHEDPEVKFNWYVDGVEVHNAKTKPREEQYNSTYRVVSVLTVLHQDWLNGKEYKCKVSNKALPAPIEKTISKAKGQPREPQVCTLPPSREEMTKNQVSLSCAVKGFYPSDIAVEWESNGQPENNYKTTPPVLDSDGSFFLVSKLTVDKSRWQQGNVFSCSVMHEALHNHYTQKSLSLSPGK
light: DIQLTQSPSSLSASVGDRVSITCKASQDVSIAVAWYQQKPGKAPKLLIYSASYRYTGVPDRFSGSGSGTDFTLTISSLQPEDFAVYYCQQHYITPLTFGAGTKVEIKRTVAAPSVFIFPPSDEQLKSGTASVVCLLNNFYPREAKVQWKVDNALQSGNSQESVTEQDSKDSTYSLSSTLTLSKADYEKHKVYACEVTHQGLSSPVTKSFNRGEC
EC50 (read off the curve) [1]: ~0.008 µg/mL
EC50 (read off the curve) [2]: ~1 µg/mL
EC50 (read off the curve) [3]: ~4 µg/mL
